Consider four molecules from paper PMC9184547, “Distinct dissociation rates of murine and human norovirus P-domain dimers suggest a role of dimer stability in virus-host interactions” (Communications Biology, 2022).

Data set [1] addresses T1, MNV CW1 P-domain (MNV-1 P-dimer) (Murine norovirus 1, UniProt Q80J94).
T1 construct: gene ORF2; MBP-His8 fusion from E. coli BL21(DE3), cleaved with HRV3C; MIL(proS)V(proS)A 13C-methyl labelled for NMR
The data set can be described thus: differential scanning fluorimetry (SYPRO orange). The data set is classed as binding. The following applies: pH 5.3, 20 mM sodium acetate, 100 mM NaCl; 3 µM protein; stabilisation rises with ligand concentration. For orientation: Differential scanning fluorimetry follows unfolding on heating by fluorescence.

Data set [2] deals with T1, MNV CW1 P-domain (MNV-1 P-dimer). The data set is described as follows: methyl TROSY NMR titration, TITAN global lineshape analysis. The data set is classed as binding.
Data set [3] has as its target GII.4 Saga P-domain deamidated at position 373 (iso-aspartate, iD) (human norovirus GII.4 Saga). The data set is described as follows: ion-exchange chromatography of exchanging dimers; 373iD/iD and 373Q/Q dimers mixed 1:1, total 1.24 mg/ml, 75 mM sodium phosphate, 100 M NaCl (so in the source), 0.02% NaN3, pH 7.3, 298 K; aliquots over 38 days on analytical cation exchange chromatography; fraction of mixed dimers fitted to an exponential; dimer to monomers.

The target in data set [4] is GII.4 Saga P-domain (native, non-deamidated) (human norovirus GII.4 Saga). The data set is described as follows: native MS; 150 mM ammonium acetate pH 7.3, purified GII.4 Saga P-domain, 25 C, also at low protein concentration.
Data set [5] deals with the molecule itself. The data set can be described thus: NMR titration; 1H,15N TROSY HSQC spectra of [U-2H,15N] labeled P-domain at 24-200 uM protein; intensities of unassigned dimer cross-peaks; 298 K, 20 mM sodium acetate, 100 mM NaCl, pH* 5.3; dimer to monomers.
Data set [6] concerns the molecule itself. The data set can be described thus: native MS; 150 mM ammonium acetate pH 5.3, 2-92 uM purified P-domain, 25 C; relative dimer peak area against total protein fitted; dimer to monomers.
Data set [7] deals with the molecule itself. The data set can be described thus: NMR titration; methyl TROSY (1H,13C HMQC) spectra of MILproSVproSA labeled apo P-domain at six concentrations 12.5-226 uM; global two-dimensional lineshape analysis with TITAN (dimerization model); 298 K, 20 mM sodium acetate-d3, 100 mM NaCl, pH* 5.26 in D2O; dimer to monomers.
Data set [8] deals with the molecule itself. The data set can be described thus: SEC-MALS; Superdex 75 10/300 GL, 10-200 uM protein, 20 mM sodium acetate, 100 mM NaCl, pH 5.3. On the technique in general: In gel filtration, larger molecules generally elute earlier.
Data set [9] deals with the molecule itself. The data set can be described thus: SEC; analytical Superdex 75 Increase 3.2/300, 20 mM sodium acetate, 100 mM NaCl, pH 5.3, 278 K; 250 nM-270 uM protein; apparent molecular weight against feed concentration fitted, apparent KD; lower limit from the 10x dilution; dimer to monomers.

As for `C[C@H](CCC(=O)NCC(=O)O)[C@H]1CC[C@H]2[C@@H]3[C@H](O)C[C@@H]4C[C@H](O)CC[C@]4(C)[C@H]3CC[C@]12C` [GCDCA, glycochenodeoxycholic acid], in data set [1], the TM result is “thermostability of CW1 P-domains improves considerably with increasing GCDCA concentrations”. For the same molecule, the Kd in data set [2] is 10.5 ± 0.5 µM.
Turning to “GII.4 Saga P-domain point mutant N373Q (domain or fragment)”, in [3], the dimer half-life time came out at 127 h and the koff was determined as 1.51e-06 s⁻¹.
In data set [4], “GII.4 Saga P-domain (native, non-deamidated) (domain or fragment)” gave a stoichiometry N of 2.

B1: MNV-1 (CW1) P-domain (domain or fragment)
chain: TIYRMVDLPVIQPRLCTHARWPAPVYGLLVDPSLPSNPQWQNGRVHVDGTLLGTTPISGSWVSCFAAEAAYKFQSGTGEVATFTLIEQDGSAYVPGDRAAPLGYPDFSGQLEIEVQTETTKTGDKLKVTTFEMILGPTTNADQAPYQGRVFASVTAAASLDLVDGRVRAVPRSIYGFQDTIPEYNDGLLVPLAPPIGPFLPGEVLLRFRTYMRQIDTADAAAEAIDCALPQEFVSWFASNAFTVQSEALLLRYRNTLTGQLLFECKLYNEGYIALSYSGSGPLTFPTDGIFEVVSWVPRLYQLASVGSLATGRMLKQ
notes: Protruding (P)-domain of the major capsid protein VP1 of murine norovirus MNV-1 (CW1); construct truncated at the C-terminus compared to prior work; Monomer-dimer equilibrium in solution; Used unlabeled, [U-2H,15N] labeled or 13C-methyl (MILproSVproSA) labeled; also called MNV CW1 P-domain; MNV.CW1 P-domain; source: E. coli BL21 DE3, purified (Ni-NTA, HRV3C cleavage, Ni-NTA, SEC at pH 5.3)
Turning to B1, the Kd was roughly 31 µM in [5], 32 µM in data set [6], 6.9 µM in data set [7] and 4 to 40 µM in data set [9]. In addition, the koff in [7] amounted to 1.25 s⁻¹. The molecule also gave an on-rate constant (kon) in [7] of 140000 M⁻¹ s⁻¹. In addition, in data set [8], the “stoichiometry N” value was 2.

By koff is commonly meant a measure of how fast the partners let go of each other. Low readings indicate a long-lived complex, high ones a short-lived complex. In general, stoichiometry N refers to a count of units in the complex or per binding partner. By kon is commonly meant the rate constant with which the complex forms.
